Test results published in patent US20020025923A1.

Biological target: PNAd (peripheral node addressin), MECA-79 purified human tonsil lysate
Experiment: precipitation of PNAd with the chimera

B1: L-selectin/IgG chimera (entire extracellular domain of murine L-selectin fused to the Fc domain of human IgG1) (Fc fusion, UniProt P18337 39-332, looked up, not shown: a dimerising Fc or GST)
chain: WTYHYSEKPMNWENARKFCKQNYTDLVAIQNKREIEYLENTLPKSPYYYWIGIRKIGKMWTWVGTNKTLTKEAENWGAGEPNNKKSKEDCVEIYIKRERDSGKWNDDACHKRKAALCYTASCQPGSCNGRGECVETINNHTCICDAGYYGPQCQYVVQCEPLEAPELGTMDCIHPLGNFSFQSKCAFNCSEGRELLGTAETQCGASGNWSSPEPICQVVQCEPLEAPELGTMDCIHPLGNFSFQSKCAFNCSEGRELLGTAETQCGASGNWSSPEPICQETNRSFSKIKEGDYN
- percent precipitated: > 90%
